Test results as given in patent US20160011195A1.

Assays:
[1] = molecular target: PLK1 PBD protein (residues 367-603) (human) (UniProt P53350); experiment: competitive FP, displacement of fluorescein tracer SEQ ID NO: 7 from PLK1 PBD (367-603)
[2] = molecular target: PLK1 PBD protein (residues 367-603) (human) (UniProt P53350); experiment: competitive FP
[3] = molecular target: PLK1 326-603 (longer PBD construct) (human) (UniProt P53350); experiment: competitive FP, displacement of fluorescent tracer peptide from PLK1 326-603
Sequence of PLK1 326-603 (longer PBD construct) (human) (P53350 326-603 limits assumed): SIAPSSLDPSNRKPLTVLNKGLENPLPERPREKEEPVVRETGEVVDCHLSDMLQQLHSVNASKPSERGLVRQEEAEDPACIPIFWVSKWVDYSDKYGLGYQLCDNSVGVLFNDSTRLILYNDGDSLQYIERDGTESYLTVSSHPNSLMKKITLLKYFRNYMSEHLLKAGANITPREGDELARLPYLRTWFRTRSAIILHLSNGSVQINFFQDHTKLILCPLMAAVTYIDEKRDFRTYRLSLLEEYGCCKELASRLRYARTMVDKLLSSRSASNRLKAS

Sequence of PLK1 PBD protein (residues 367-603) (human) (P53350 367-603 limits assumed): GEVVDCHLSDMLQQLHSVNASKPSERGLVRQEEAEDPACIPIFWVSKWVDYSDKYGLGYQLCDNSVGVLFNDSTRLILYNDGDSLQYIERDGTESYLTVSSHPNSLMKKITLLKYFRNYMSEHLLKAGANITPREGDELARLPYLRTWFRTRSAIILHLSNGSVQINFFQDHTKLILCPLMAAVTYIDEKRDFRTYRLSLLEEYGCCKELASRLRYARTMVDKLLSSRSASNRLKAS

Substance	IC50 [1]	further results
3G1-S[pT]PNGL (4-ethylbenzoic acid) (Sample No. 5788) (peptide)	16.5 µM	–
3G2-S[pT]PNGL (4-butylbenzoic acid) (Sample No. 5827) (peptide)	8.6 µM	–
Ac-AHS[pT]AI (sample no. 5782) (peptide)	15 µM	fold higher IC50 (against Ac-LHS[pT]AI, sample no. 5781) [2]: 3 fold
Ac-LHS[pT]AI (sample no. 5781) (peptide)	5 µM	fold less potent than the parent peptide containing the N-terminal LLC [2]: 6 fold; fold more potent than the non-acetylated version (sample no. 5649) [2]: 40 fold
Ac-LLCS[pT]PNGL (sample no. 5821) (peptide)	0.5 µM	–
Ac-PLHS[pT]A (sample no. 5743) (peptide)	2 µM	–
LDCS[pT]PNGL (sample no. 5795) (peptide)	3 µM	–
LHS[pT]AI (sample no. 5649) (peptide)	200 µM	–
LLCS[pT]PNGL, native phospho-CDC25c PBD binding sequence (sample no. 292) (peptide)	0.42 µM	IC50 [3]: 1300 nM
S[pT]PNGL (sample no. 5714) (peptide)	> 600 µM	–
